Reference: publication PMC3948114

B1: unnamed (parent)
chain 1: HMGGQDKPFLSAWPSAVVPRGGHVTLRCHYRHRFNNFMLYKEDRIHIPIFHGRIFQESFNMSPVTTAHAGNYTCRGSHPHSPTGWSAPSNPVVIMVTGNHRKPSLLAHPGPLVKSGERVILQCWSDIMFEHFFLHKEGISKDPSRLVGQIHDGVSKANFSIGPMMLALAGTYRCYGSVTHTPYQLSAPSDPLDIVVTGPYEKPSLSAQPGPKVQAGESVTLSCSSRSSYDMYHLSREGGAHERRLPAVRKVNRTFQADFPLGPATHGGTYRCFGSFRHSPYEWSDPSDPLLVSVTGNPSSSWPSPTEPSSKSGNPRHLHILIGTSVVIILFILLLFFLLHLWCSNKKNAAVMDQEPAGNRTANSEDSDEQDPEEVTYAQLDHCVFTQRKITRPSQRPKTPPTDTILYTELPNAKPRSKVVSCP
chain 2: not shown
chain 3: not shown
chain 4: TSTLQEQIDW

Variants of: B1
Assay: tetramer staining of transfected HEK293 cells
Settings: with partner chain of the complex shown; 0.2 μg tetramer; read off a plot

| Variant | response (% of *001 TW10) |
| --- | --- |
| chain 1 A167G | 10 |
| chain 1 L166V | 46 |
| chain 1 L166A | 90 |
| chain 1 E282Q | 130 |
| chain 1 E282A | 26 |
